# Laboratory results from patent US20220402995A1 (TOSOH, published 2022).
# B1: AVR5eHC (AVR5e with a cysteine tag for immobilization at the C-terminus) (receptor)
# chain: MGSAGESVQITLPKNEVQLNAYVLQEPPKGETCTYDWQLITHPRDYSGEMEGKHSQILKLSKLTPGLYEFKVIVEGQNAHSEGYVNVTVEPEPRKNRPPIAIVSPQFQEISLPTTSTVIDGSQSTDDDKIVQYHWEELKGPLREEKISEDTAILKLSKLVPGNYTFRLTVVDSDGATDSTTANLTVNKAVDHHHHHHCRNDTCG
# notes: also called AVR5e-immobilized gel; AVR5e column
# Biological target: T1, AAV2-EGFP (AAV vector of serotype 2 carrying an EGFP gene) (AAV2, UniProt P03135 1-735; P03135 1-598; P03135 1-533)
# T1 construct: Genome-containing AAV2 particle; amounts counted as vector genomes (VG) by qPCR
# Test: column of AVR5eHC immobilised on gel; cell extract with AAV2-EGFP applied, elution at pH 2.5
# T1 sequence (P03135 whole entry, chain 1 of 3, the tested form may be a part): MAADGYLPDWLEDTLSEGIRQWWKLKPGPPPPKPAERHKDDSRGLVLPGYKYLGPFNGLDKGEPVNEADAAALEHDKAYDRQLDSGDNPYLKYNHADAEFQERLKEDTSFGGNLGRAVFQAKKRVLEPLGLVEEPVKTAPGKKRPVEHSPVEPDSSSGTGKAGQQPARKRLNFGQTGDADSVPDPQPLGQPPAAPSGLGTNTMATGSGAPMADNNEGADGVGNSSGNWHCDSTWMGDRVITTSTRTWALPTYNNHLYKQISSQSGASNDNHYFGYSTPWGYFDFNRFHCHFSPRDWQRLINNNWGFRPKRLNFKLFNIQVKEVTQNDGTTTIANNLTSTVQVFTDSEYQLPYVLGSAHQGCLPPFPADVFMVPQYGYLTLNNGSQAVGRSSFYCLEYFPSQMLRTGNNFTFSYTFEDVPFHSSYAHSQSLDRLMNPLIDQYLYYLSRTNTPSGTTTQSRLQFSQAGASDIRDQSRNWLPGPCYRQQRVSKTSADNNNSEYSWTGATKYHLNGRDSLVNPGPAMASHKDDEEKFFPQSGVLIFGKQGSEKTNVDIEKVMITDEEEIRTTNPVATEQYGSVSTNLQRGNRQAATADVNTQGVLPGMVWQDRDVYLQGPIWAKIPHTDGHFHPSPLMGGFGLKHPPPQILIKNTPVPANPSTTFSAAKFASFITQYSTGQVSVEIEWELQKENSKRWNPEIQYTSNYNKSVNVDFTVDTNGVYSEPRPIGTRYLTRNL
# T1 sequence (P03135 139-735, tags left off, chain 2 of 3): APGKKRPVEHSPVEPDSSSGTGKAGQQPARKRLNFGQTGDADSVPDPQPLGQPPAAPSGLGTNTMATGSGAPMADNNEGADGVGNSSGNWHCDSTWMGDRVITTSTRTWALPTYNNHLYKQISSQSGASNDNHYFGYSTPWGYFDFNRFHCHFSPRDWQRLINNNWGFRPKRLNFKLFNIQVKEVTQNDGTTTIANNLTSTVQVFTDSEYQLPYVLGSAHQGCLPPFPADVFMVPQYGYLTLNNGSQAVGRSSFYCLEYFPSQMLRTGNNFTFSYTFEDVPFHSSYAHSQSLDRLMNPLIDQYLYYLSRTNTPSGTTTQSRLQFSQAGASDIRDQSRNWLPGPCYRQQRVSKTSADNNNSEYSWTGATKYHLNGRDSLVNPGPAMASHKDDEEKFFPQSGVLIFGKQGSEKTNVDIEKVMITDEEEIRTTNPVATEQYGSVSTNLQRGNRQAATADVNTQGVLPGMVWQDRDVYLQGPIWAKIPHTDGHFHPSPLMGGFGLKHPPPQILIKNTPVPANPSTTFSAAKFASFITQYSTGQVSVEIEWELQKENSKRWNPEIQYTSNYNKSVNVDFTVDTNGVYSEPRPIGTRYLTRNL
# T1 sequence (P03135 203-735, chain 3 of 3): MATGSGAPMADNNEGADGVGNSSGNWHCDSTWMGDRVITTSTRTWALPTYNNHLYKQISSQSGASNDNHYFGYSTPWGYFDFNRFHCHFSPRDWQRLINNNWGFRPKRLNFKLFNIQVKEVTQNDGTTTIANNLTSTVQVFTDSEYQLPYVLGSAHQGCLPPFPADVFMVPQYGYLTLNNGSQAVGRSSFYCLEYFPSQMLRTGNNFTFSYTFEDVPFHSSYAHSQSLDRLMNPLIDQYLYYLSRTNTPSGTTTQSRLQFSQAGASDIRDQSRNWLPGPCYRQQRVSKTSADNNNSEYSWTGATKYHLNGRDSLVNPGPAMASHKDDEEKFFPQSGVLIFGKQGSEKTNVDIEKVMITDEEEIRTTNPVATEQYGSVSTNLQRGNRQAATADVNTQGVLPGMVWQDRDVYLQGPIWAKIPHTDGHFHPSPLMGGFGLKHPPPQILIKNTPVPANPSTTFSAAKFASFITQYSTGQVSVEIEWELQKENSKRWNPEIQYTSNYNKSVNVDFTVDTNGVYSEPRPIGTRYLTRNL
binder,measurement,value
B1,binding result,binds
